# Substitutions are numbered along the chain they refer to. Names and notes keep the numbering of the source.
# B1: 1889/1889:40G5c anti-CCR8 TDB 2+1 A/AB (A: 1889 P, B: 40G5c) (bispecific antibody, human IgG1, kappa, L234A L235A)
# heavy 1: EVQLLESGGGLVQPGGSLRLSCAASGIDLSTYAMGWVREAPGKGLEWVGLIHRSGRTYYATWAKGRFTISKDSSKNTLYLQMNSLRAEDTAVYYCTRSYPDYSATASIWGQGTTVTVSSASTKGPSVFPLAPSSKSTSGGTAALGCLVKDYFPEPVTVSWNSGALTSGVHTFPAVLQSSGLYSLKSVVTVPSSSLGTQTYICNVNHKPSNTKVDKKVEPKSCDKTHTCPPCPAPEAAGGPSVFLFPPKPKDTLMISRTPEVTCVVVDVSHEDPEVKFNWYVDGVEVHNAKTKPREEQYNSTYRVVSVLTVLHQDWLNGKEYKCKVSNKALGAPIEKTISKAKGQPREPQVYTLPPSREEMTKNQVSLWCLVKGFYPSDIAVEWESNGQPENNYKTTPPVLDSDGSFFLYSKLTVDKSRWQQGNVFSCSVMHEALHNHYTQKSLSLSPGK
# light 1: DIQVTQSPSSLPASVGDRVTITCQASENIANALAWYQKKPGKPPKFLIYGASNLASGVPSRFSGSGSGTDFTFTISSLQPEDIATYYCQQAYYGNSFVEGTFGGGTKVEIKRTVAAPSVFIFPPSDEQLKSGTASVECLLNNFYPREAKVQWKVDNALQSGNSQESVTEQDSKDSTYSLSSTLTLSKADYEKHKVYACEVTHQGLSSPVTKSFNRGEC
# heavy 2: EVQLLESGGGLVQPGGSLRLSCAASGIDLSTYAMGWVREAPGKGLEWVGLIHRSGRTYYATWAKGRFTISKDSSKNTLYLQMNSLRAEDTAVYYCTRSYPDYSATASIWGQGTTVTVSSASTKGPSVFPLAPSSKSTSGGTAALGCLVKDYFPEPVTVSWNSGALTSGVHTFPAVLQSSGLYSLKSVVTVPSSSLGTQTYICNVNHKPSNTKVDKKVEPKSCDKTHTEVQLVQSGAEVKKPGASVKVSCKASGYTFTNYYIHWVRKAPGQGLEWIGWIYPGDGNTKYNEKFKGRATLTADTSTSTAYLELSSLRSEDTAVYYCARDSYSNYYFDYWGQGTLVTVSSASTKGPSVFPLAPSSKSTSGGTAALGCLVKDYFPEPVTVSWNSGALTSGVHTFPAVLQSSGLYSLESVVTVPSSSLGTQTYICNVNHKPSNTKVDKKVEPKSCDKTHTCPPCPAPEAAGGPSVFLFPPKPKDTLMISRTPEVTCVVVDVSHEDPEVKFNWYVDGVEVHNAKTKPREEQYNSTYRVVSVLTVLHQDWLNGKEYKCKVSNKALGAPIEKTISKAKGQPREPQVYTLPPSREEMTKNQVSLSCAVKGFYPSDIAVEWESNGQPENNYKTTPPVLDSDGSFFLVSKLTVDKSRWQQGNVFSCSVMHEALHNHYTQKSLSLSPGK
# light 2: not shown
# notes: 2+1 T cell-dependent bispecific: human IgG1 Fc with LALA-PG, knob-into-hole and charge mutations
# B2: anti-CCR8 1889 WT antibody (parent) (antibody, V domains shown)
# VH: EVQLLESGGGLVQPGGSLRLSCAASGIDLSTYAMGWVREAPGKGLEWVGLIHRSGRTYYATWAKGRFTISKDSSKNTLYLQMNSLRAEDTAVYYCTRSYPDYSATASIWGQGTTVTVSS
# VL: DIQVTQSPSSLSASVGDRVTITCQASENIANALAWYQKKPGKPPKFLIYGASNLASGVPSRFSGSGSGTDFTFTISSLQPEDIATYYCQQAYYGNSFVEGTFGGGTKVEIK
# notes: The antibody has human IgG constant regions (detected with anti-human IgG)
# B3: anti-CCR8 1889 S12P.I29V (PV) (antibody, V domains shown)
# VH: B2 VH
# VL: B2 VL with S12P, I29V
# B4: anti-CCR8 1889 S12P.I29V.Y58A (PVA) (antibody, V domains shown)
# VH: B2 VH with Y58A
# VL: B2 VL with S12P, I29V
# notes: It is put together from the printed names of the heavy chain variant (Y58A) and the light chain variant (S12P.I29V)
# B5: anti-CCR8 1889 S12P.I29V.E95dS.T57D.Y58A (PVSDA) (antibody, V domains shown)
# VH: B2 VH with T57D, Y58A
# VL: B2 VL with S12P, I29V, E99S
# notes: It is put together from the printed names of the heavy and light chain variants; also called I29V.E95dS.Y57D.Y58A
# B6: anti-CCR8 1889 S12P.I29V.E95dS (PVS) (antibody, V domains shown)
# VH: B2 VH
# VL: B2 VL with S12P, I29V, E99S
# B7: anti-CCR8 1889 S12P.I29V.E95dS.Y58A (PVSA) (antibody, V domains shown)
# VH: B2 VH with Y58A
# VL: B2 VL with S12P, I29V, E99S
# notes: It is put together from the printed names of the heavy and light chain variants
# Columns and labels:
# cyno CCR8 [1] = target: T1, cyno CCR8 (cynomolgus monkey, UniProt O97665 1-356 (rhesus entry)); test: LigandTracer real-time fluorescence, Alexa Fluor 488-labelled TDB on CHO cells expressing cyno CCR8; 1-to-2 fit, monovalent event
# T1 construct: also called cynomolgus CCR8; cyCCR8
# T1 sequence (O97665 other isoform, or with tags, fused parts or gaps): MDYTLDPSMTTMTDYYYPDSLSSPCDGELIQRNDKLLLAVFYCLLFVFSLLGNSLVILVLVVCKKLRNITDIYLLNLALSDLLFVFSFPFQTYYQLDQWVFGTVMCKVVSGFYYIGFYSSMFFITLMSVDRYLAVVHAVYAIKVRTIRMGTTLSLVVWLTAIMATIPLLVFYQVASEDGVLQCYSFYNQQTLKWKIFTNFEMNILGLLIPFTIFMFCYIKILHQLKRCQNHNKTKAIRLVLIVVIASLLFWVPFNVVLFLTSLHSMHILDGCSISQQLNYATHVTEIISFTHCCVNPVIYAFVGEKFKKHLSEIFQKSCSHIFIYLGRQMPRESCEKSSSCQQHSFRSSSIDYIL
# Experimental: (§1) The following day, media was aspirated and fresh media was added. The cells were incubated at room temperature for 20 minutes prior to starting the assay. The plate was loaded onto a LIGAND TRACER® Green instrument (Ridgeview Instruments AB) for real-time fluorescence measurement. […] Antibody (Ab) dissociation was recorded by aspirating the media and adding fresh media with 10 nM of unlabeled Ab to prevent rebinding of labeled Ab. The Ab dissociation was measured overnight to obtain accurate off-rates. Untransfected CHO cells were used to subtract the non-specific binding. Specific binding traces were analyzed using TraceDrawer 1.7 (Ridgeview Instruments) software and fit with a 1-to-2 with bulk binding model to determine association (kₐ) and dissociation (kd) rate constants. The equilibrium dissociation constants (KD) for each binding event were calculated as the ratio of the dissociation and association rates, kd/kₐ.
# (§2) 1 million CHO cells stably expressing either human or cynomolgus CCR8 (about 60,000 and about 30,000 receptors/cell, respectively) were seeded at a concentration of 1 million cells/mL onto a Multidish 2×2 Petri Dish (Ridgeview Instruments AB, Sweden) to form a circular drop of about 3 cm diameter in chambers A and C of the dish. […] The plate was loaded onto a […]® Green (Ridgeview Instruments AB) for real-time fluorescence measurement.
# human CCR8 [2] = target: T2, human CCR8 (human, UniProt P51685 1-355); test: LigandTracer real-time fluorescence, Alexa Fluor 488-labelled TDB on CHO cells expressing human CCR8; 1-to-2 fit, bivalent event
# T2 construct: also CHO-hCCR8-Ga15 / CHO/hCCR8.Gna15); also called hCCR8; huCCR8
# T2 sequence (P51685 whole entry): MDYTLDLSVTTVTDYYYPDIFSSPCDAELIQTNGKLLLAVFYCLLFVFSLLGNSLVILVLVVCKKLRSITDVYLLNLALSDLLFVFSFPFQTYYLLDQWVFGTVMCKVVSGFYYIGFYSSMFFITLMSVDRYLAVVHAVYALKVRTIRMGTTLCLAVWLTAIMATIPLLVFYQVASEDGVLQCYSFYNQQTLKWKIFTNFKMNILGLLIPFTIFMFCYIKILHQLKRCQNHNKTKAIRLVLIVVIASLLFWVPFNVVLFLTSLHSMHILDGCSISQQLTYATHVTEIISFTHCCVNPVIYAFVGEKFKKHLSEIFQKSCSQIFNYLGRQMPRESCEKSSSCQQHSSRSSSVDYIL
# Experimental: as §1, §2
# human CCR8 [3] = target: T2, human CCR8; test: LigandTracer real-time fluorescence, Alexa Fluor 488-labelled TDB on CHO cells expressing human CCR8; 1-to-2 fit, monovalent event
# Experimental: as §1, §2
# cyno CCR8 [4] = target: T1, cyno CCR8; test: cellular binding with LigandTracer on CHO cells expressing cyno CCR8, three experiments (same values as the bivalent row of Table 8)
# Experimental: (§3) Untransfected CHO cells were used to subtract the non-specific binding. Specific binding traces were analyzed using TraceDrawer 1.7 (Ridgeview Instruments) software and fit with a 1-to-2 with bulk binding model to determine association (kₐ) and dissociation (kd) rate constants. The equilibrium dissociation constants (KD) for each binding event were calculated as the ratio of the dissociation and association rates, kd/kₐ.
# (§4) 1 million CHO cells stably expressing either human or cynomolgus CCR8 (about 60,000 and about 30,000 receptors/cell, respectively) were seeded at a concentration of 1 million cells/mL onto a Multidish 2×2 Petri Dish (Ridgeview Instruments AB, Sweden) to form a circular drop of about 3 cm diameter in chambers A and C of the dish. Untransfected CHO cells were seeded in opposing chambers (B and D) in the same manner. Cells were left undisturbed to adhere for 4 hours. […] The plate was loaded onto a […]® Green (Ridgeview Instruments AB) for real-time fluorescence measurement. […] The Ab dissociation was measured overnight to obtain accurate off-rates. […] Specific binding traces were analyzed using TraceDrawer 1.7 (Ridgeview Instruments) software to determine the association-(kₐ) and dissociation-(kd) rate constants. The equilibrium dissociation constants (KD) for each binding event were calculated as the ratio of the dissociation and association rates, kd/kₐ. […]
# human CCR8 [5] = target: T2, human CCR8; test: cellular binding with LigandTracer on CHO cells expressing human CCR8, three experiments (same values as the bivalent row of Table 8)
# Experimental: as §3, §4
# [6] = target: T3, Human CD3-epsilon/delta dimer (linked by murine Fc) (human; mouse, UniProt P07766 23-126; P04234 22-105); test: SPR (Biacore T200, 37 C), TDB captured by anti-human Fc on CM5, huCD3ed-mIgG2a.Fc injected; 1:1 Langmuir, n=3
# T3 construct: also called huCD3ed-mIgG2a.Fc; recombinant human CD3epsilon/delta; not shown: mouse IgG2a Fc
# T3 sequence (P07766 23-126, stated change not applied, chain 1 of 2): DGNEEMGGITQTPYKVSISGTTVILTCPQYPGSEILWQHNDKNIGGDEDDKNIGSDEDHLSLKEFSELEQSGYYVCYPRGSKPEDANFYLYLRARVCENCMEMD
# T3 sequence (P04234 22-105, stated change not applied, chain 2 of 2): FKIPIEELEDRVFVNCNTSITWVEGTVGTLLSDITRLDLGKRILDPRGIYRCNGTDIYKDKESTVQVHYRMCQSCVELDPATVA
# cyno CCR8 [7] = target: T1, cyno CCR8; test: LigandTracer real-time fluorescence, Alexa Fluor 488-labelled TDB on CHO cells expressing cyno CCR8; 1-to-2 fit, bivalent event
# Experimental: as §1, §2
# cyno CCR8 [8] = target: T1, cyno CCR8; test: flow cytometry titration on CHO cells stably expressing cyno CCR8 (14 h, room temperature)
# Experimental: (§5) In particular, human CCR8 CHO and cyno (cynomolgus monkey) CCR8 CHO stable cell lines were stained with a dilution series of anti-CCR8 antibodies at room temperature for 14 hours, then washed twice with FACS buffer (PBS with 0.5% BSA and 0.2 mM EDTA). Samples were washed twice with FACS buffer followed by staining with goat Fab anti-hu IgG H+L (1:300, Jackson Immuno) at 4° C. for 15 minutes.
# human CCR8 [9] = target: T2, human CCR8; test: flow cytometry titration on CHO cells stably expressing human CCR8 (14 h, room temperature)
# Experimental: as §5
EC50 (cyno CCR8 [8]) [nM],EC50 (human CCR8 [9]) [nM],also measured,Binder
–,–,Kd (cyno CCR8 [1]): 1.01 nM; Kd (human CCR8 [2]): 0.00778 nM; Kd (human CCR8 [3]): 0.484 nM; Kd (cyno CCR8 [4]): 0.023 nM; Kd (human CCR8 [5]): 0.008 nM; Kd [6]: 1160 nM; Kd (cyno CCR8 [7]): 0.0228 nM,B1
11.5,17.1,–,B2
7.67,1.65,–,B3
6.14,1.03,–,B4
2.24,0.94,–,B5
3.13,0.66,–,B6
3.39,1.19,–,B7

# From patent publication US20240360229A1 (Genentech, published 2024)
